The values that follow come from PMC6838084.

The target of assay [1] is soluble C-terminal deletion mutant of human α2δ-1 with an N-terminal double strep II-tag (α2δ-1S NTST) (human). Nature of the assay: ELISA; ELISA-style titration; α2δ-1S NTST (20 µg/ml) coated; TSP-4 11-1,505 nM; TBS pH 7.4 + 1 mM Ca2+; RT; apparent KD. For orientation: An ELISA detects its analyte on a solid surface through an enzyme-linked reagent.
Assay [2] has as its target α2 peptide chain of human α2δ-1 with an N-terminal double strep II-tag (α2 NTST) (human). Nature of the assay: ELISA; ELISA-style ligand binding assay; α2δ-1S NTST (20 or 10 µg/ml) or α2 NTST (10 µg/ml) coated on 96-well plates; soluble TSP at a single concentration of 1,000 nM; TBS pH 7.4 with 1 mM Ca2+; 2 h at RT; detection with TSP-specific antibody/antiserum (Fig. 3A, 3C).

For assay [3], the target named is soluble C-terminal deletion mutant of human α2δ-1 with an N-terminal double strep II-tag (α2δ-1S NTST) (human). Description: ELISA; ELISA-style titration; α2δ-1S NTST (20 µg/ml) coated; TSP-4 11-1,505 nM; TBS pH 7.4 without Ca2+; RT; apparent KD.

thrombospondin-4 (TSP-4), recombinant full-length rat, N-terminal double strep II-tag, sequence (P49744 43-980): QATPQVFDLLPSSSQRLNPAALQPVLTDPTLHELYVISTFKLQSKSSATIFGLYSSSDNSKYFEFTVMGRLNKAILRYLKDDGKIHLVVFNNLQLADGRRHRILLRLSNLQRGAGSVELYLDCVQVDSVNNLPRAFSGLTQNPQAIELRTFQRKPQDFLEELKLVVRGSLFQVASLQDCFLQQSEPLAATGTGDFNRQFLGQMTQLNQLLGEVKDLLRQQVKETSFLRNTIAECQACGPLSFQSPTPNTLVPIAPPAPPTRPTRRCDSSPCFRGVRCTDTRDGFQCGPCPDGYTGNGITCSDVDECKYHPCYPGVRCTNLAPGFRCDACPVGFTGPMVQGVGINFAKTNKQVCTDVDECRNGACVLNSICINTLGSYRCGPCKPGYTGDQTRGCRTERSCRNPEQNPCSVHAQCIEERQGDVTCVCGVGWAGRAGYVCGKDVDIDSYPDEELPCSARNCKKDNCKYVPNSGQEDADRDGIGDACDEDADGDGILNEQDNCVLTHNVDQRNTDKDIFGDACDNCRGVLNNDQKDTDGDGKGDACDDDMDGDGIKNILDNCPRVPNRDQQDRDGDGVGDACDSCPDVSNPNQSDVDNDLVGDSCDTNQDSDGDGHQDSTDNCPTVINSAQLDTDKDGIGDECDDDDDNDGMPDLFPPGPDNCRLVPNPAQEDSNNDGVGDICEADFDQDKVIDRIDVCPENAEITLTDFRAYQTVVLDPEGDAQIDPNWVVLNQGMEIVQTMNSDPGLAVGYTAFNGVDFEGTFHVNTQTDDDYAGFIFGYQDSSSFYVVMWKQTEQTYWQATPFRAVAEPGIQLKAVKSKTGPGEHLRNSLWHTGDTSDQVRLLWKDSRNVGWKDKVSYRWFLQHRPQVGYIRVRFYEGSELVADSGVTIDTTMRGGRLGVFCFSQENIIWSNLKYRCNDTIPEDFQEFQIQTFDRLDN

On to “thrombospondin-4 (TSP-4), recombinant full-length rat, N-terminal double strep II-tag (from UniProt P49744 43-980) (natural protein)”, for which the results for the Kd in assay [1] and in assay [3] were 153 nM and 198 nM, respectively. In assay [2], this substance registered a fold change of the binding signal against α2δ-1S NTST of 2 fold.
